Results: patent US10175123B2, “MEMS-based calorimeter, fabrication, and use thereof” (THE TRUSTEES OF COLUMBIA UNIVERSITY IN THE CITY OF NEW YORK, priority 2013, dated 2019)

How the values were obtained:
[1] = MEMS AC-DSC measurement of lysozyme unfolding; format: physicochemical; settings: 10 and 20 mg/mL, 0.1 M Glycine-HCl pH 2.5, 25 to 82 °C at 5 °C/min, AC modulation 1, 5 or 10 Hz; depends on modulation frequency
Description: The MEMS AC-DSC device calibrated above was used to measure the thermal behavior of protein unfolding.
Meanwhile, the specific heat capacity (c) of the protein as a function of temperature can be computed from the thermopile voltage amplitude (FIG. 19).

[2] = typical range of published data; cited from earlier work
[3] = Polymer MEMS DSC measurement of lysozyme unfolding; format: physicochemical; settings: 0.1 M Glycine-HCl buffer pH 2.5, 5 K/min, all concentrations except 1 mg/mL
Protocol: Before DSC measurements, the baseline, i.e., the thermopile output voltage in the absence of a differential power input, during temperature scanning in the range of interest was recorded with both calorimetric channels filled with buffer solutions. After which, characterizations of biomolecules were performed with the calorimetric channels, respectively filled with a biological sample and a buffer solutions, and scanned in the same range with pre-specified rate. The temperature sensors were used to monitor the temperatures of calorimetric channels, while the device output was obtained in real time to compute the biomolecular thermal power.
The calibrated polymer MEMS DSC device was then exploited to characterize protein unfolding. Glycine-HCl buffer (0.1 M, pH 2.5) was filled in both sample and reference calorimetric channels while the device was scanned at a constant rate of 5 K/min. […]
The thermopile differential voltage as a function of temperature, corrected by baseline subtraction, was measured at varying concentrations ranging from 1 to 20 mg/mL (FIG. 42). […] Furthermore, the differential heat capacity as a function of temperature and the calibrated device sensitivity can be calculated from the device voltage output by Equation 7. The sample heat capacity as a function of temperature was determined by: […]

[4] = MEMS DSC measurement of lysozyme unfolding; format: physicochemical; settings: 1 to 20 mg/mL in 0.1 M Glycine-HCl buffer pH 2.5, scan 25-75 °C at 5 °C/min
Protocol: DSC measurements of biomolecules were performed using the calibrated microdevice, whose sample chamber and reference chamber were respectively filled with biological sample and buffer solutions, scanned in a range of temperature of interest. The temperature sensors were used to monitor the temperatures of calorimetric chambers while the device output was obtained in real time to compute the biomolecular thermal power. Before DSC measurements, the baseline in device output, i.e., the thermopile output voltage in the absence of a differential power input, during temperature scanning was measured with both calorimetric chambers filled with buffer solutions. […]
The thermopile output voltage as a function of temperature, corrected by baseline subtraction, was measured at varying protein concentrations ranging from 1 to 20 mg/mL (FIG. 10).
Despite the amplitude difference of device output at various protein concentrations, they all yielded consistent estimates of the thermodynamic properties associated with the protein unfolding process. In particular, the profile shape of c was generally not influenced by protein concentration, and ΔH was consistently determined to be approximately 450 kJ/mol with a corresponding melting temperature Tm of approximately 55° C.

For “lysozyme: targeted sample biomolecule, purchased from Sigma Aldrich (lyophilized powder, protein ≥90%)”, the “apparent melting temperature (Tm)” value [1] is listed as 55-58 °C, the “Tm, published data” value [2] is listed as 55-58.9 °C and the “ΔH of unfolding, published data” value [2] is listed as 90.1 to 105 kcal/mol. For the same substance, the “melting temperature Tm” value [3] was 54.71 °C, the “total enthalpy change per mole (ΔH) of unfolding” value [3] was 101 kcal/mol and the “melting temperature Tm” value [4] was “approximately 55 °C”. The “total change of molar enthalpy (ΔH) of unfolding” value [4] was “approximately 450 kJ/mol”.
